Publication PMC5842915 (Biochemistry, 2017)
Several values for one entry are separate records, joined by “and”; a condition that tells them apart may be missing. Equal values may be shown once. Read-outs that look alike come from different tables or passages of the source. One block for each molecule: values may come before it.

Key:
[1] = target: Bcl-2 (Homo sapiens) (UniProt P10415); details: cited from earlier work
[2] = target: BECN1 CC CC (Homo sapiens) (UniProt Q14457); details: cited from earlier work
[3] = target: Bcl-2 (Homo sapiens) (UniProt P10415); details: cited from earlier work; remark: listed apart in the source
[4] = target: BECN^1-265 (BECN1 residues 1-265, BARA-less construct) (human) (UniProt Q14457); experiment: AUC
[5] = target: V250A/M254A/L261A mutant of full-length BECN1 (human) (UniProt Q14457); experiment: AUC
[6] = target: human Bcl-2 (residues 1-218) (human, UniProt P10415 1-218); experiment: ITC
Sequence of human Bcl-2 (residues 1-218) (P10415 1-218): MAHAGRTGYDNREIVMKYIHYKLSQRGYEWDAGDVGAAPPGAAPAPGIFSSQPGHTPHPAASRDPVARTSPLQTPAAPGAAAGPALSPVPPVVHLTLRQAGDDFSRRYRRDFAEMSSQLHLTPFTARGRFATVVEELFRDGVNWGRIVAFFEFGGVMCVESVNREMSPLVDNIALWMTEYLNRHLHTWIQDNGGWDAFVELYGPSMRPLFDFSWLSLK

Sequence of Bcl-2 (Homo sapiens) (P10415 whole entry, the tested form may be a part): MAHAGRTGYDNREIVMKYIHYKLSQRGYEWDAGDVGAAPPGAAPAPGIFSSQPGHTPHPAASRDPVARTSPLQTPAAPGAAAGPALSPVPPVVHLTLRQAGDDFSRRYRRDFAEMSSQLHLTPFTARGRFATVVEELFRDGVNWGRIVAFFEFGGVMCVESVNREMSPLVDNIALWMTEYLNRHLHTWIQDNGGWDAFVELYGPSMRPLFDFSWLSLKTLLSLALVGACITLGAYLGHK
Sequence of BECN1 CC CC (Q14457 175-265): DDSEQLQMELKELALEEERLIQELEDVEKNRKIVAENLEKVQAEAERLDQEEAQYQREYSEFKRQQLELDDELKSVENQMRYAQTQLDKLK
Sequence of BECN1 BH3 peptide 105-130 (Q14457 105-130): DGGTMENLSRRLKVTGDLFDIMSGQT
Sequence of BECN1 IDR 1-135 (Q14457 1-135): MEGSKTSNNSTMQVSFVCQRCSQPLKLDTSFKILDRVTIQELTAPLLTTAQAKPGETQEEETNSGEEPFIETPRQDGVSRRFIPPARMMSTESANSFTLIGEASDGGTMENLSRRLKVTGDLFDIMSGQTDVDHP

Molecule: BECN1 BH3 peptide 105-130 (from UniProt Q14457)
Kd [1]: 8 µM

Molecule: BECN1 CC CC (from UniProt Q14457)
Kd [2]: 48 µM and 45 µM

Molecule: BECN1 IDR 1-135 (from UniProt Q14457)
Kd [3]: 8.6 µM

Molecule: BECN^1-265 (BECN1 residues 1-265, BARA-less construct) (from UniProt Q14457 1-265) (domain or fragment)
Kd [4]: 1.35 µM

Results, then the molecule that gave them:

Kd [5]: 1.86 µM
Molecule: V250A/M254A/L261A mutant of full-length BECN1 (from UniProt Q14457 1-450) (natural protein)

Kd [6]: 9.6 µM
Molecule: FTLIGEASDGGTMENLSRRLKVTGDLFDIM [BECN1 BH3 peptide (residues 97-126)]
